Source: patent publication US10005846 (LIFEARC, dated 2018)
Residue numbers refer to the chain shown, from its start.

T1: cynomolgus monkey TG2 (cynomolgus monkey, UniProt A0A2K5VXI8 1-687)
T1 construct: Bought recombinant protein; also called cynomogulus monkey TG2; cyano TG2
T1 sequence: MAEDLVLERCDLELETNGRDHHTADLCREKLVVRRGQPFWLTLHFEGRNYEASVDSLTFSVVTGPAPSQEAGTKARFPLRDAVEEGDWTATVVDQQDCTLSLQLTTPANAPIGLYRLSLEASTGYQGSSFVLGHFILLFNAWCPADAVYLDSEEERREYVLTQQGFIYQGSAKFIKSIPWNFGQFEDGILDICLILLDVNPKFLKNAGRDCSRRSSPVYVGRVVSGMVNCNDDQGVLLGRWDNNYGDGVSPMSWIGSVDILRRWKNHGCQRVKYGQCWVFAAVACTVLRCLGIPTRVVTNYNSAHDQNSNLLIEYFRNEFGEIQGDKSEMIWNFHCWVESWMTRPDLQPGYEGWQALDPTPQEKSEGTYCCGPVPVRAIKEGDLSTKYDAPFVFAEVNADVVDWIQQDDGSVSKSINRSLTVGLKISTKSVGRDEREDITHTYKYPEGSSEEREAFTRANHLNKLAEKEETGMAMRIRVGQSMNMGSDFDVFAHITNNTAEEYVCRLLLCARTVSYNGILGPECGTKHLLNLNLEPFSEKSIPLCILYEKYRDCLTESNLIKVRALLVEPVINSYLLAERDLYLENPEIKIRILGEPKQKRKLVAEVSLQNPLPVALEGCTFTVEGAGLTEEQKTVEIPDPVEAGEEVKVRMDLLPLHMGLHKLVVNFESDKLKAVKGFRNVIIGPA

T2: human transglutaminase type 2 (TG2) (human, UniProt P21980 1-687)
T2 construct: Recombinant full-length human TG2 (Zedira; cat; T002 in the Biacore work); Also used here for the endogenous TG2 of HepG2 lysate and HK-2 cells; also called hTG2; rhTG2
T2 sequence: T1 sequence with D4E, R157Q, S177N, S413H, T421I, H528Y, I542V

B1: cDH001 chimeric antibody (murine DH2 variable regions) (antibody, human IgG1, V domains shown)
VH: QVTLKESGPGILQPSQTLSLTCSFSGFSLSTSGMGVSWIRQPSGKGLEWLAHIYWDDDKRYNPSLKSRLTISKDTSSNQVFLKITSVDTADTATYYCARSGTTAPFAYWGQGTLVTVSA
VL: QIVLTQSPAIMSASPGEKVTMTCSASSSVSYMYWYQQKPGSSPRLLIYDTSNLASGVPVRFSGSGSGTSYSLTISRMEAEDAATFYCQQWSSSPLTFGAGTKLELK
B2: cDD9001 chimeric antibody (murine DD9 variable regions) (antibody, human IgG1, V domains shown)
VH: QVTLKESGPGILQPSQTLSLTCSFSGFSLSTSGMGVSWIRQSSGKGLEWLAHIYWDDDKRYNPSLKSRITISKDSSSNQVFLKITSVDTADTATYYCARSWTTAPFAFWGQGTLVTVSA
VL: B1 VL with S30D, E78G, F85Y, S91N

Legend:
cynomolgus monkey TG2 [1] = target: T1, cynomolgus monkey TG2; assay: ELISA on immobilised cynomolgus monkey TG2; r2 0.9986; EC50 95% confidence range 0.6682 to 0.8162 [panel A]
Description: (§1) Antibody binding to human and cynomolgus monkey TG2 was determined in an ELISA assay. Clear polystyrene "Maxisorp" 96-well plates (Nunc) were coated with 50 ng purified human or cynomogulus monkey TG2 in 50 µl 0.05 M carbonate-bicarbonate buffer pH 9.6 at 4° C. overnight. Control wells were coated with 50 µl 100 µg/ml bovine serum albumin (BSA). Plates were washed 3× with 300 µl phosphate-buffered saline pH7.4 (PBS) containing 0.1% Tween 20 (PBST) and blocked with 300 µl 3% w/v Marvel skimmed milk in PBS for 1 hour at room temperature. After 3× wash with PBST, 50 µl protein-A purified chimeric or humanised anti-TG2 antibodies or human IgG1 kappa […] control antibody or CUB7402 (Abcam) were serially diluted 4-fold from a top concentration of 50 nM in PBS, and added to the plate in duplicate. […] After 3× washes with PBST, the plates were developed with 50 µl TMB substrate (Sigma) for 5 min at room temperature before stopping the reaction with 25 µl 0.5M H2SO4 and reading absorbance at 450 nm in a microtiter plate reader (BioTek EL808). Dose response curves were analysed and EC50 values and other statistical parameters determined using a 4-parameter logistical fit of the data (GraphPad Prism).

[2] = target: T2, human transglutaminase type 2 (TG2); assay: ELISA on immobilised human TG2; r2 0.9968; EC50 95% confidence range 0.2890 to 0.4002 [panel A]
Description: as §1

cynomolgus monkey TG2 [3] = target: T1, cynomolgus monkey TG2; assay: ELISA on immobilised cynomolgus monkey TG2; r2 0.9992; EC50 95% confidence range 0.3040 to 0.3536 [panel A]
Description: as §1

[4] = target: T2, human transglutaminase type 2 (TG2); assay: cell-based or functional assay

Row | Binder | EC50 (cynomolgus monkey TG2 [1]) [nM] | EC50 [2] [nM] | EC50 (cynomolgus monkey TG2 [3]) [nM] | IC50 of enzymatic inhibition, dansylated lysine incorporation into N,N-dimethylated casein [continued), panel D] [4] [nM]
1 | B1 | 0.739 | 0.34 |  | 
2 | B2 |  |  | 0.328 | 172
